# B1: 5' fluoro MS2 SL (structured_RNA)
# RNA: CCUACAUGAGGAUUACCCAUGUU
# Key:
# Assay in all cases: FP
# MS2 coat protein WT = MS2 coat protein WT (bacteriophage MS2, UniProt P03612 2-130)
# MS2 coat protein W32A = MS2 coat protein W32A (bacteriophage MS2, UniProt P03612 2-130, W33A)
# MS2 coat protein N55D = MS2 coat protein N55D (bacteriophage MS2, UniProt P03612 2-130, N56D)
binder,measurement,setting,value
B1,binding result,MS2 coat protein WT,binds
same,binding result,MS2 coat protein W32A,no binding
same,binding result,MS2 coat protein N55D,no binding

# Source: publication doi:10.1101/2025.04.02.646914
